The results in this text go back to PMC9599101 (Biosensors, 2022).

Test [1] has as its target T1, recombinant SEB produced by BEVS (staphylococcal enterotoxin B, 6x His-tagged) (Staphylococcus aureus., UniProt P01552).
T1 construct: not shown: His6, C-terminal, kept
As to the kind of experiment: ELISA. To be noted: both partners purified.

Test [2] deals with T1, recombinant SEB produced by BEVS …. In words: BLI. To be noted: both partners purified.
Test [3] concerns the target natural SEB secreted from S. aureus strain CCARM 3089 (Staphylococcus aureus CCARM 3089, UniProt P01552, strain). As to the kind of experiment: ELISA. To be noted: one partner purified.
Test [4] has as its target natural SEB secreted from S. aureus strain SA2 (Staphylococcus aureus SA2 (bovine …, UniProt P01552, strain)). In words: ELISA. To be noted: one partner purified.

B1: anti-SEB monoclonal antibody 4-7A (antibody, V domains shown)
VH: QVQMQQSGAELVRPGASVKLSCKASGYTFTNNWMNWVKQRPGQGLQWIGMIDPSDSETHYNQMFKDKASLTVDKSSSSAYMVLSSLTSEDSAVYYCARRALSYYGSNPTLFDYWGQGTTLTVSS
VL: DIVMSQSPSSLAVSVGEKVTMSCKSSQSLLYSSNQKNYLAWYQQKPGQSPKLLIYWASTWESGVPDRFTGSGSGTNFTLTINSVKTEDLAVYYCQQYSGYPYTFGGGTKLELK
notes: also called 4-7A mAb
Take B1: the EC50 in test [1] came out at 14.5 nM. In test [2], the dissociation constant Kd turned out to be 1.55 nM, the koff was 0.000226 s⁻¹ and the on-rate (kon) is 146000 M⁻¹ s⁻¹.

B2: anti-SEB monoclonal antibody 2-7A (antibody, V domains shown)
VH: EVLLVESGGGLVQPGGSLRLSCATSGFTFTDYYMSWVRQPPGKALEWLGFIRNKANGYTTKYSASVKGRFTISRDNSQSILYLQMNTLRAEDSATYYCAKDNWEAYFDYWGQGTTLTVSS
VL: DVVMTQTPLSLPVSLGDQASISCRSSQSIVHSNGNTYLEWYLQKPGQSPKLLIYKVSNRFSGVPDRFSGSGSGTDFTLKISRVEAEDLGVYYCFQGSHVPWTFGGGTKLELK
notes: also called 2-7A mAb
B2: the concentration giving a half-maximal response (EC50) in test [1] was found to be 13.5 nM. In test [2], the Kd came out at 0.55 nM, the off-rate (koff) turned out to be 7.02e-05 s⁻¹ and the kon stood at 128000 M⁻¹ s⁻¹.

B3: anti-SEB monoclonal antibody 11-7E (antibody, V domains shown)
VH: QVQLKESGPELVRPGVSVKISCKGSGYTFTDYAMHWVKQSHAKSLEWIGIISTYSGNTNYNQKFKAKATMTVDKSSSTAYMELARLTSEDSAIYYCAREGYYGSSRSFDVWGAGTTLTVSS
VL: QIVLTQSPALMSASPGEKVTMTCSASSSVSYMYWYQQKPRSSPKPWIYLTSNLASGVPARFSGSGSGTSYSLTISSMEAEDAATYYCQQWSSNPLTFGAGTKLELK
notes: also called 11-7E mAb
Take B3: the concentration giving a half-maximal response (EC50) in test [1] amounted to 16.7 nM. Besides, the binding result in test [3] was “binds”. Also, the binding result in test [4] was “binds”. Besides, in test [2], the Kd is 0.331 nM, the off-rate (koff) came to 3.27e-05 s⁻¹ and the association rate constant (kon) came to 99000 M⁻¹ s⁻¹.
